Publication doi:10.1101/2021.04.13.439572
Each block holds one substance with its values, some of them ahead of it.

Key:
Experiment in all cases: fluorescence polarisation
[1] = biological target: KPNB1 HEAT, tag cleaved, for affinity measurements
[2] = biological target: 14-3-3 protein sigma (14-3-3 SFN), tag cleaved, for affinity measurements
[3] = biological target: KPNA4 ARM, MBP-tagged, for affinity measurements
[4] = biological target: MDM2 SWIB, cleaved from the His-GST tag, for affinity measurements
[5] = biological target: TLN1 PTB, tag cleaved, for affinity measurements

Substance: KPNA2_(514-529) C-terminal synthetic peptide (from UniProt P52292 514-529)
- Ki [1]: 1000 µM

Substance: MAP1A_(1836-1851) synthetic peptide
- Ki [2]: 355 µM

Substance: RNF115_(69-84) synthetic peptide (from UniProt Q9Y4L5 69-84)
- Ki [4]: 0.17 µM

Substance: integrin beta-3 ITB3_(763-778) synthetic peptide
- Ki [5]: 500 µM

The next lines start with the values.

- fold loss of affinity against wild-type NKX2-5 (192-207) [3]: 10 fold
Substance: NKX2-5_(192-207) K194R synthetic peptide (from UniProt P52952 192-207)

- Ki [4]: 3.3 µM
Substance: NUMB_(615-630) synthetic peptide (from UniProt P49757 615-630)
